Entries after “also recorded” stand apart in the source; their conditions may differ.
Legend:
HSG cells = assay: Calcium mobilization imaging in HSG cells (Fluo-4); assay type: cell-based, human
Description: Cells were seeded at 1.4×10^4 HSG cells/mm^2 or 0.7×10^4 HSG cells/mm^2 on Matrigel-coated (100 μg/ml; BD Biosciences; San Diego Calif.) coverslips to respectively achieve 70-80% confluency after overnight or 48 h growth in 6-well plates containing phenol red-free Dulbecco's modified Eagle's medium with 10% fetal calf serum.
Other cells were incubated (0.7×10^4HSG cells/mm^2 overnight plating) with 100 ng/ml pertussis toxin (Calbiochem; San Diego Calif.) in phenol red-free Dulbecco's modified Eagle's medium with 10% fetal calf serum; or vehicle alone). Cells were washed with calcium-free/phenol red-free Hanks basic salt solution, 20 mM N-2-hydroxyethylpiperazine-N′-2-ethane sulfonic acid and then incubated for 1 h at room temperature with the same solution containing fluo-4 μM at 4 μM (FluoroPure grade [Molecular Probes; Eugene Oreg.] dissolved in DMSO plus 20% Pluronic F-127). Cells were washed three times for 60 min at room temperature with calcium-free/phenol red-free Hanks basic salt solution with 5 mM Ca^2+ or 5 mM EGTA. Temperature was stabilized for 5 min at 37° C. coverslips were placed on the stage of a TE-200 epifluorescent microscope (Bio-Rad Radiance2100 confocal/multiphoton system using Plan Fluor 60×NA 1.4 Oil IR objective lens [Bio-Rad, Hercules Calif.] as part of the W. M. Keck Center for Cellular Imaging, University of Virginia), subjected to a 488 nm argon laser light source with emission at 528 nm. Baseline monitoring was followed by addition of lacritin or deletion fragments in phenol red-free Hanks basic salt solution.

PKCα = assay: Phospho-PKCα blot of HSG cell lysates; assay type: cell-based, human; details: for concentration of optimal dephosphorylation: increasing molar levels
Description: (§1) For phosphotyrosine blotting and mitogenesis assays, cells in serum-containing media were seeded overnight in 24-well plates at a density of 0.5×10^5 cells/mm^2 corresponding to 20-30% confluency after cell attachment, incubated in serum-free media without supplements for 24 h (phosphotyrosine) or washed with serum-free media without supplements three times (mitogenesis) and incubated with lacritin (1-1000 nM), or positive controls EGF (1.6 nM) and 10% fetal bovine serum, or negative controls bovine serum albumin or no additive in serum-free media without supplements for the indicated times (phosphotyrosine) or 30 h (mitogenesis). For phosphotyrosine assays, cells were extracted in 1% NP40 containing sodium vanadate (2 mg/ml), DTT (5 mg/ml), protease inhibitors, 50 mM HEPES, 100 mM NaCl, and 2 mM EDTA; then separated by 10% SDS PAGE, transferred and blotted. The following antibodies (Cell Signaling Technology, Beverly Mass.) were tested: antiphosphotyrosine antibody (P-Tyr-100), anti-phospho-PKC αβII, anti-PKCα, anti-phospho-PKCδ, anti-phospho-PKC (pan), anti-p44/42 MAPK, anti-phospho-Raf, anti-phospho-SAPK/JNK, anti-phospho-p38 Map kinase, anti-phospho-Raf, anti-phospho-Akt, anti-phospho-CaMKII, anti-phospho-MARCKS, or anti-tubulin (loading control). After washing, bound antibodies were detected with peroxidase-labeled secondary antibody and ECL. With the exception of at least nine proteins in the P-Tyr-100 blot (FIG. 1), none of the effectors tested above appeared to be phospho-activated during lacritin signaling (not shown). For mitogenesis (Hussaini et al., '00), [^3H]-thymidine (2 mCi/ml) was added for the next 6 h. Incorporation was stopped with ice-cold phosphate buffered saline and followed by addition of cold and then room temperature trichloracetic acid (10%) for 10 min each, washing of cells with phosphate buffered saline, solubilization with 1 N sodium hydroxide, neutralization with 1 N hydrochloric acid, addition of scintillation fluid and then quantitation in a scintillation counter. To deplete PKCα in HSG cells, a pool of four PKCα-specific siRNAs (100 nM) were transfected via LipofectAMINE 2000 in Opti-MEMI Reduced Serum Medium (Invitrogen, Grand Island N.Y.) without serum and antibiotics according to manufacturer's instructions. Each of the four siRNAs was also individually transfected. In negative controls, cells were transfected with a pool of four lamin-specific siRNAs (Upstate LLC, Charlottesville Va.; Dharmacon Inc, Lafayette Colo.). Seventy-two hours post-transfection, mitogenesis was assessed by co-addition of 10 […] lacritin and [^3H]-thymidine (2 mCi/ml) (Amersham, Piscataway N.J.) for 24 hrs. PKCα depletion was confirmed by Western blotting.
We imaged PKCα in cells 15 min after treatment (FIG. 8). Nonmitogenic construct/fragment C-25 (10 nM) had no effect, leaving PKCa diffusely distributed throughout the cytoplasm. […] The phosphorylation state of PKCα influences its translocation site. Hyperphosphorylated PKCα becomes associated with the plasma membrane whereas hypophosphorylated or dephosphorylated PKCα is known to translocate to the perinuclear Golgi region. To determine if the latter is true and if so over what time course, we treated cells with lacritin, N-24 and C-25, and then blotted cell lysates for phospho-PKC ? (FIG. 8B). 10 nM lacritin promotes PKC ? dephosphorylation within 1 min of addition. This form is sustained for at least 15 min, but by 30 min has returned to baseline phosphorylation. Dephosphorylation triggered by increasing molar levels of lacritin or N-24 mirrored the proliferation response with optimal dephosphorylation at 10 nM. Non-mitogenic C-25 had no effect, whereas positive control 4β-phorbol 12-myristate 13-acetate-promoted hyperphosphorylation.

[1] = test system: human salivary ductal (HSG) cells; assay: 3H-thymidine uptake mitogenesis assay; assay type: cell-based
Description: as §1

[2] = test system: human corneal epithelial (HCE) cells; assay: 3H-thymidine uptake mitogenesis assay; assay type: cell-based
Description: For phosphotyrosine blotting and mitogenesis assays, cells in serum-containing media were seeded overnight in 24-well plates at a density of 0.5×10^5 cells/mm^2 corresponding to 20-30% confluency after cell attachment, incubated in serum-free media without supplements for 24 h (phosphotyrosine) or washed with serum-free media without supplements three times (mitogenesis) and incubated with lacritin (1-1000 nM), or positive controls EGF (1.6 nM) and 10% fetal bovine serum, or negative controls bovine serum albumin or no additive in serum-free media without supplements for the indicated times (phosphotyrosine) or 30 h (mitogenesis). […] After washing, bound antibodies were detected with peroxidase-labeled secondary antibody and ECL. […] Incorporation was stopped with ice-cold phosphate buffered saline and followed by addition of cold and then room temperature trichloracetic acid (10%) for 10 min each, washing of cells with phosphate buffered saline, solubilization with 1 N sodium hydroxide, neutralization with 1 N hydrochloric acid, addition of scintillation fluid and then quantitation in a scintillation counter. […] Seventy-two hours post-transfection, mitogenesis was assessed by co-addition of 10 […] lacritin and [^3H]-thymidine (2 mCi/ml) (Amersham, Piscataway N.J.) for 24 hrs. […]

## Cn1c2ccccc2c2c3c(c4c5ccccc5n(CCC#N)c4c21)CNC3=O [Go 6976]
HSG cells; Example 4
  effect on Ca++ signaling after lacritin stimulation: suppress Ca++ signaling
HSG cells; U73122 1 μM, Go 6976 1 μM, even at 10 μM
  effect on carbachol-stimulated calcium mobilization: unaffected
HSG cells; preincubation: pertussis toxin 100 ng/ml, U73122 1 μM, Go 6976 1 μM, or siRNA
  effect on lacritin-stimulated calcium mobilization: completely inhibited
PKCα; pertussis toxin 100 ng/ml, Go 6976, U73122, U73343 1 μM
  effect on lacritin-dependent PKCα dephosphorylation: inhibited

B1: N-24: deletion mutant comprising a deletion of the 24 amino terminal amino acids of lacritin (protein)
chain: DSTGADPAQEAGTSKPNEEISGPAEPASPPETTTTAQETSAAAVQGTAKVTSSRQELNPLKSIVEKSILLTEQALAKAGKGMHGGVPGGKQFIENGSEFAQKLLKKFSLLKPWA
modifications: homo sapiens
notes: deletion mutant comprising a deletion of the 24 amino terminal amino acids of lacritin
[1]; 10 nM, compared to intact lacritin
  mitogenic activity of deletion constructs: active
[2]
  mitogenesis: promote cell proliferation
PKCα
  concentration of optimal dephosphorylation: 10 nM

B2: lacritin: recombinant human lacritin from E. coli; mature 119 residue fragment (SEQ ID NO:10) of native lacritin SEQ ID NO:4 (protein, listed as Homo sapiens)
chain: EDASSDSTGADPAQEAGTSKPNEEISGPAEPASPPETTTTAQETSAAAVQGTAKVTSSRQELNPLKSIVEKSILLTEQALAKAGKGMHGGVPGGKQFIENGSEFAQKLLKKFSLLKPWA
HSG cells; 10 nM
  calcium mobilization: promotes calcium mobilization
HSG cells; 10 nM lacritin
  calcium mobilization in EGTA-containing medium: mobilized internal calcium
HSG cells; lacritin 10 nM
  time to calcium mobilization after addition: ≤ 30 s
[1]
  proliferation in nominally calcium-free medium: proliferated in a bell-shaped lacritin dose-dependent manner
[1]; not shown
  time to detectable 3H-thymidine uptake: Within two hours
[1]; vs 10% FBS positive control
  level of proliferation at optimal dose: matching the FBS positive control
[2]
  mitogenesis: mitogenic; also recorded: promote cell proliferation
PKCα; 10 nM lacritin
  time dephosphorylated form is sustained: at least 15 min
  time of return to baseline phosphorylation: ≤ 30 min
  time to PKCα dephosphorylation: ≤ 1 min
PKCα
  concentration of optimal dephosphorylation: 10 nM

From patent US7648964B2, “Use of lacritin in promoting ocular cell survival” (University of Virginia Patent Foundation, priority 2004, dated 2010)
